How the values were obtained:
[1] = substrate: NC(=O)C1=CN([C@@H]2O[C@H](COP(=O)(O)OP(=O)(O)OC[C@H]3O[C@@H](n4cnc5c(N)ncnc54)[C@H](O)[C@@H]3O)[C@@H](O)[C@H]2O)C=CC1; assay: ferrozine A562 ferric reductase assay; assay type: biochemical, Paramagnetospirillum magneticum; settings: stimulation of ferric reductase activity, electron donor, FAD and ferric citrate present, pH 7.5
[2] = substrate: Cc1cc2nc3c(=O)[nH]c(=O)nc-3n(C[C@H](O)[C@H](O)[C@H](O)COP(=O)(O)OP(=O)(O)OC[C@H]3O[C@@H](n4cnc5c(N)ncnc54)[C@H](O)[C@@H]3O)c2cc1C; assay: ferrozine A562 ferric reductase assay; assay type: biochemical, Paramagnetospirillum magneticum; settings: stimulation of ferric reductase activity, co-substrates NADH and ferric citrate, pH 7.5, varied: cofactor

B1: Mms6 (Paramagnetospirillum magneticum AMB-1) (protein)
chain: VGGTIWTGKGLGLGLGLGLGAWGPIILGVVGAGAVYAYMKSRDIESAQSDEEVELRDALA
notes: micelles of about 13-15 nm
Km [1]: 15 µM | Km [2]: 25 µM

— paper PMC9499114, “The Magnetosome Protein, Mms6 from Magnetospirillum magneticum Strain AMB-1, Is a Lipid-Activated Ferric Reductase” (International Journal of Molecular Sciences, 2022)
